Source: paper PMC13216289 (NPJ Vaccines, 2026)

Experiments:
Settings in all cases: both partners purified
[1] = molecular target: VP1 subunit of reduced O1M VLPs (Foot-and-mouth disease virus …, UniProt Q6PMW3); test: far-Western, overlay or dot blot
[2] = molecular target: VP1 C-terminal peptide, residues 196-210 of O/UKG/34/2001 (Foot-and-mouth disease virus …, UniProt Q80B19); test: ELISA
[3] = molecular target: VP1 C-terminal peptide, residues 199-213 of O/UKG/34/2001 (Foot-and-mouth disease virus …, UniProt Q80B19); test: ELISA

Row | Binder | binding result [1] | binding result [2] | binding result [3]
1 | Ab34 (antibody, V domains shown) VH: QVQLRESGPSLVKPSQTLSLTCTVSGFSLTDVHVGWVRQTPGKALEWVGVICNRGAIGYNPALESRLSITEDNSKSQVSLSLSSVTTADTATYYCASSCRTEGDVGGDCDSDHFFCAWGQGLLVTVSS VL: SYELTQPTSVSVALGQTAKITCSGDLLDRQYAQWYQQKPGQGPVRVIYKDSERPSGISDRFSGSSSGKTATLTVSGAQTEDEADYYCHSADSSHYPVFGSGSTLTVL | binds |  | 
2 | Ab17 (antibody, V domains shown) VH: QVQLRESGPSSLKPSQTLSLTCAVSGFSLSTYAVGWVRQAPGKALEWVGDITSSGDTFYNPALKSRFSITKDNSKNQVSLSVGSVTPEDTATFYCTRLTCGDDCSTAWHNFDAWGQGLLVTVSS VL: SYELTQPTSVSVALGQTAKITCSGDLLDVQYTQWYQQKPGQGPVRVIYKDSERPSGISDRFSGSSSGKTATLIISGAQTEDEADYYCQSTDSSQYGIFGRGTTLTVL | binds | binds | binds
3 | Ab49 (antibody, V domains shown) VH: QVQLRESGPSLVKPSQTLSLTCTVSGFSLTNYAVGWVRQAPGKAIQSLSIISTTGDTYYNPALKSRLSITKDNSKSQVSLSVSSVAPEDTATYYCVKFCGNADSAGHGWGCDYGDNENWGQGLLVTVSS VL: SYELTQPTSVSVALGQTAKITCSGDLLDEQYTQWYQQKPGQGPVRVIYKDSERPSGISDRFSGSSSGKTATLTISGAQTEDEADYYCQSFYSSTDPVFGSGTTLTVL | binds | binds | binds
